Reference: the nanobody polyreactivity screen of Harvey et al. (2022)

test: yeast display, Sf9 membrane polyspecificity reagent, FACS + sequencing; frameworks hold sequencing errors
Method in brief: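 A nanobody's polyreactivity label depends on the gate it was sorted from. Yeast display cells were stained with 10% biotinylated, detergent-solubilized Sf9 membrane reagent for 1 hour at 4 °C, enriched on streptavidin microbeads and sorted by FACS. The low and high (top ~1%) gates were set on anti-HA fluorescence for expression and streptavidin fluorescence for reagent binding.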

Sequence | polyreactivity (PSR sort gate)
QVQLVESGGGLVQAGGSLRLSCAASGSTFSYYAMGGYRQEPGKERELVAAISRGTRTYYADSVKGSFSISRDNAKNTVYLLMNSLKAEDTAVYYCAADLWYTRYYYWGQGTQVTVSS | high polyreactivity
QVQLVESGGGLVQAGGSLRLSCAASGSTFSYYAMGWYIQAAGKERELVADITLNGGDTYYADSVKGRFTISRDNAKNTVYLQMNSLKPEDTAVYYCAKDSTADELTGFDYWGQGTQVTVSS | low polyreactivity
QVQLVESGGGLVQAGGSLRLSCAASGSTFSYYAMGWYRQAPGKEREFVAAISYSTTSTFYADSVKGRFTISRDNAKNTVYLQMNSLKPEDTAVYYCAARARYSPATYDYWGQGTQVTVSS | high polyreactivity
QVQLVESGGGLVQAGGSLRLSCAASGSTFSYYAMGWYRQAPGKEREFVASISWRGGSTYYADSVKGRFTISRDNAKNTVYLQMNRLKPEDTAVYYCAASSRSRWSGYRYDYWGQGTQVTVSS | high polyreactivity
QVQLVESGGGLVQAGGSLRLSCAASGSTFSYYAMGWYRQAPGKERELVAAISGRGGSTYYADSVKGRFTISRDNAKNTVYLQMNSLKPEDTAVYYCAKGRLYTAYGLYSWGQGTQVTVSS | high polyreactivity
QVQLVESGGGLVQAGGSLRLSCAASGSTFSYYAMGWYRQAPGKERELVAAISSRGGSTYYADSVKGRFTISRDNAKNTVYLQMNSQKPEDTAVYYCNADHQFRSSVSGDHDYWGQGTQVTVSS | high polyreactivity
QVQLVESGGGLVQAGGSLRLSCAASGSTFSYYAMGWYRQAPGKERELVAAISWSGGSTYYADSVKGRFTISRDNAKNTVYLQMNSLKPEDTAVYYCAIVTRKTYYVGNGDYWGQGTQVTVSS | high polyreactivity
QVQLVESGGGLVQAGGSLRLSCAASGSTFSYYAMGWYRQAPGKERELVAANTSGCRSKYADSVKGRFTISRDNAKNTVYLQINSLKPEDTAVYYCAKRIENFSGSLAGRWYDYWGQGTQVNVSS | high polyreactivity
QVQLVESGGGLVQAGGSLRLSCAASGSTFSYYAMGWYRQAPGKERELVADISSGGSTNYADSVKGRFTISRDNAKNTVYLQMNSLKPEDTAVYYCNRRYSYYDGFDYWGQGTQVTLSS | low polyreactivity
QVQLVESGGGLVQAGGSLRLSCAASGSTFSYYDMGWYREAPGKERELVAVITTSGVSTYYADSVKGRFTISRDNAKNTVYLQMNSLKPEDTAVYYCNADYGYDSVVEYDYWGQGTQVTVSS | low polyreactivity
QVQLVESGGGLVQAGGSLRLSCAASGSTFSYYGMGWYRQAPGKERELVAAIDYSGDSTYYADSVKGRFTISRDNAKNTVYLQMNSMKPEDTALYYCNAAHSVRHYAIHLGYWGQGTQVTVSS | low polyreactivity
QVQLVESGGGLVQAGGSLRLSCAASGSTFSYYTMGWYRQAPGKERELVAAISRTGGSTYYADSVKGRFTISRDNAKNTVYLQMNSLKPEDTAVYYCAAKGYVGRYDYWGQGTQVTVSS | high polyreactivity
QVQLVESGGGLVQAGGSLRLSCAASGSTFTDNTMGWYRQAPGKERELVAAISGVGSTYYADSVKGRFTISRDNAKNTVYLQLNSLKPEVSAVYYCAKPYYDGRTHFVSWGQGTQVTVSS | low polyreactivity
QVQLVESGGGLVQAGGSLRLSCAASGSTFTDYAMGWYRQAPGKERELVAAIDSGGITNYADSVKGRFTISRDNAKNTVYLQMNSLKPEDTAVYYCNADSSKFYSHGEYEYWGQGTQVTVSS | low polyreactivity
QVQLVESGGGLVQAGGSLRLSCAASGSTFTDYAMGWYRQAPGKERELVAAITKSGGSTYYADSVKGRFTISRDNAKNTVYLQMNSLKPEDTAVYYCAAGNHRRPADYGSWGQGTQVTVSS | low polyreactivity
QVQLVESGGGLVQAGGSLRLSCAASGSTFTDYDMGWYRQAPGKERELVAAISSGGSTYYADSVKGRFTISRDNAKNTVYLQMNSLKPEDTAVYYCAAVLGVWGGVGSEGDYWGQGTQVTVSS | low polyreactivity
QVQLVESGGGLVQAGGSLRLSCAASGSTFTENAMGWYRQAPGKERELVATISTSDGSTHYADSVKGRFTISRDNAKNTVYLQMNSLKPEDTAVSYCAARPDYYLWHGYYTRRHYYWGQGTQVTVSS | low polyreactivity
